The chains are these.
B1: 7299-M9 (antibody, IgG1, V domains shown)
VH: EVKLEQSGAELVKPGASVKLSCKASGYTFTNYWINWVKQRPGQGLEWIGNIYPGSTRANYNEKFKSKATLTVDTSSSTAYMQVSSLTSDDSAVYYCTRTHSIWGQGTQVTVSA
VL: DIVITQSPLSLSVTIGQPASISCKSSQSLLYSDGKTYLNWLQQRPGQSPKRLVYQVSKLDPGIPDRFSGSGSETDFTLKLSRVEAEDLGVYYCLQGTYYPHTFGGGTKLEIKR
B2: 7297-2M1 (antibody, IgG1, V domains shown)
VH: EVQLEQSGAELVKPGASVKLSCKASGYTFISNWMHWVKQRPGQGLEWIGNIDPSDSETHYNQKFKDKATLTVDKSSSTAYMQLSSLTSEDSAVYYCARRDRDGYYFDYWGQGTTLTVSS
VL: DIVLTQTPSSLSASLGGKVTITCKASQDINKYIAWYQHKPGKGPRLLIHYTSTLQSGIPSRFSGSGSGRDYSFSISNLEPEDIATYYCLQYDHLLTFGAGTKLELKR
notes: also called anti-Tau mAb 7297-2M1
B3: 7299-M5 (antibody, IgG2b, V domains shown)
VH: B2 VH with Q3K, Q6E
VL: B1 VL with I4M
B4: 7295-M6 (antibody, V domains shown)
VH: EVQLEESGAELVRSGASVTLSCTASGFNIKDYYIHWVKQRPEQGLEWIGWIDPENGDTEYAPKFQGKATMTADTSSNTAYLQLSSLTSEDTAVYYCNGAPGYWGPGTTLTVSS
VL: DIVLTQTPLSLPVSLGDPASISCRSSQTIVHSNGNTYLEWYLQKPGQSPKLLIYKVSNRFSGVPDRFSGSGSGTDFTLKISRVEAEDLGVYYCFQGSHVPFTFGSGTKLEIKR
notes: also called anti-Tau mAb 7295-M6
B5: 7295-M8 (antibody, IgG2b, V domains shown)
VH: B4 VH
VL: B4 VL
notes: also called anti-Tau mAb 7295-M8
B6: 7298-M1 (antibody, IgG2a, V domains shown)
VH: EVQLEESGGGLVQPGGSLSLSCAASGFTFTDYYMSWVRQPPGKALEWVALNRNKTKGYTTEYSASVKGRFTISRDNSQSILYLQMNALRAEDSATYYCARGMDYWGQGTSVTVSS
VL: DIVLTQSPTSLAVSLGQRATISCRASKSVSTSDYSYMHWYQQKPGQPPKLLIYLASNLESGVPARFSGSGSGTDFTLNIHPVEEEDAATYYCQHSRELPFTFGGGTKLEIKR
notes: also called anti-Tau mAb 7298-M1
B7: 7298-M2 (antibody, IgG2a, V domains shown)
VH: EVQLEESGGGLVKPGGSLKLSCAASGFTFSTYPMSWVRQTPEKRLEWVASISNGGSTYYPDTVKGRFTISRDNARNILYLQMSSLRSEDTAMYYCARGRDYHFDFWGQGTTLTVSS
VL: B6 VL
notes: also called anti-Tau mAb 7298-M2
B8: 7299-M2 (antibody, IgG1, V domains shown)
VH: B1 VH with E1Q, K3Q, Q6E
VL: DIVLTQTPLTLSVTIGQPASISCKSSQSLLYSDGKTFLNWLLQSPGQSPRLLIYLVSKLQSGVPDRFSGSGSGTDFTLKISRVEAEDLGVYYCVQGTHFPYTFGGGTKLEIKR
B9: IPN002 (antibody, V domains shown)
VH: EVHLVESGGALVKPGGSLKLSCAASGFSFSKYGMSWVRQTPDKRLEWVATISSSGSRTYYPDSVKGQFTISRDNAKNTLYLQMSSLKSEDTAMYYCSISWDGAMDYWGQGTSVTVSS
VL: DVLMTQTPLSLPVSLGDQASISCKSSQSIVHSNGNTYLEWYLQKPGQSPKLLVYKVSNRFSGVPDRFSGSGSGTDFTLKISRVEAEDLGTYYCFQGSLVPWAFGGGTKLEIK

Where a chain is given by its changes, count along the chain named.

The target in the first test is T1, full-length recombinant tau (0N4R) (UniProt P10636-6 1-383).
T1 construct: The screening step used biotin-labeled full-length tau; also called rTau383
T1 sequence (P10636 other isoform, or with tags, fused parts or gaps limits assumed): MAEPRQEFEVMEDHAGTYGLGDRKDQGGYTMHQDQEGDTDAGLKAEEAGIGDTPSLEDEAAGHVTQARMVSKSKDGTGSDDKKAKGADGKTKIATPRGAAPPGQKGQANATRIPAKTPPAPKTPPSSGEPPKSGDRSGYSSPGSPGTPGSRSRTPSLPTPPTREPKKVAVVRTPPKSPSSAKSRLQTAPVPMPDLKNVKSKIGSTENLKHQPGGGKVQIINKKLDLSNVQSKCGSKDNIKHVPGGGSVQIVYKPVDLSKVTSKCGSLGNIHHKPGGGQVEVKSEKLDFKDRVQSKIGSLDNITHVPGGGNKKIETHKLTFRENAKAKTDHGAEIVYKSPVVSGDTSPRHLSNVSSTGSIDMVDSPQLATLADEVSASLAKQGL
Nature of the test: direct binding ELISA-type assay, purified mAb, full-length recombinant tau 0N4R. A general note: ELISA stands for enzyme-linked immunosorbent assay.
Take B1: the Kd (in general, the constant that tells how readily two partners part at equilibrium) came out at 0.277 nM.

B2: the Kd is 2.21 nM.

With B3, the dissociation constant Kd was determined as 0.511 nM.

For B4, the Kd was determined as 0.117 nM.

As to B5, the Kd was determined as 0.08 nM.

Turning to B6, the dissociation constant Kd was found to be 6.68 nM.

For the molecule B7, the Kd came out at 4.41 nM.

The target of a further test is T2, eTau1 (human, UniProt P10636 2-547).
T2 construct: also called recombinant eTau1 fragment; eTau 2-172
T2 sequence (P10636 other isoform, or with tags, fused parts or gaps limits assumed): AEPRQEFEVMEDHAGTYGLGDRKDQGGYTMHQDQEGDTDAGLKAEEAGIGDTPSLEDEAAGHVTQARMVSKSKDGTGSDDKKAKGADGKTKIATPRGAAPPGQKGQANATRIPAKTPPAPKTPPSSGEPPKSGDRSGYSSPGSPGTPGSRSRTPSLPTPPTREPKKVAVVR
Nature of the test: direct binding assay, purified mAb, recombinant eTau fragment.
For the molecule B8, the binding result was “no binding”.

On to B1, for which the dissociation constant (Kd) turned out to be 0.6 nM.

Turning to B2, the equilibrium dissociation constant (Kd) is 0.1 nM.

As to B3, the Kd turned out to be 0.6 nM.

With B4, the Kd turned out to be 0.0528 nM.

Take B5: the dissociation constant (Kd) is 0.044 nM.

Turning to B6, the Kd is 3 nM.

Consider B7, for which the Kd came to 2 nM.

The target of a further test is T3, eTau3 (human, UniProt P10636 2-497).
T3 construct: Recombinant eTau fragment; also called recombinant eTau3; reTau3
T3 sequence (P10636 other isoform, or with tags, fused parts or gaps limits assumed): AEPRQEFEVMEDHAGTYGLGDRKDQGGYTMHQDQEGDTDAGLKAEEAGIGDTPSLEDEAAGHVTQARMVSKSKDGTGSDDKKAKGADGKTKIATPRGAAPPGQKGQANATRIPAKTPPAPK
The description is as above.
For the molecule B8, the binding result is “no binding”.

B1: the Kd came out at 1 nM.

As for B2, the binding result is listed as “no binding”.

For B3, the dissociation constant Kd was 0.6 nM.

For the molecule B4, the binding result is on record as “no binding”.

Turning to B5, the binding result is on record as “no binding”.

For the molecule B6, the Kd is 0.1 nM.

On to B7, for which the dissociation constant (Kd) came to 0.08 nM.

In the next test the target is T4, eTau4 (human, UniProt P10636 2-124).
T4 construct: Recombinant eTau fragment; also called recombinant eTau4
T4 sequence (P10636 other isoform, or with tags, fused parts or gaps limits assumed): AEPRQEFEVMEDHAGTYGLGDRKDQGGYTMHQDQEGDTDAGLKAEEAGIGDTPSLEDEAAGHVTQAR
The test is described as above.
Turning to B8, the dissociation constant (Kd) is 0.8 nM.

For B1, the Kd amounted to 0.6 nM.

Take B2: the binding result was “no binding”.

Consider B3, for which the Kd stood at 0.5 nM.

B4: the binding result is “no binding”.

On to B5, for which the binding result was “no binding”.

Take B6: the binding result is listed as “no binding”.

B7: the binding result was “no binding”.

The target of the next test is T5, eTau2 (human, UniProt P10636 2-526).
T5 construct: Recombinant eTau fragment; also called recombinant eTau2; reTau2
T5 sequence (P10636 other isoform, or with tags, fused parts or gaps limits assumed): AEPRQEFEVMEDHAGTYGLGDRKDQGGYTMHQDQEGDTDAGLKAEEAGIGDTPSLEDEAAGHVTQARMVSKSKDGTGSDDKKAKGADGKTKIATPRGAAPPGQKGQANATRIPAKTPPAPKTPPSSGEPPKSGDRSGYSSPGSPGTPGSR
The test is described as above.
In the case of B8, the binding result was “no binding”.

For the molecule B1, the dissociation constant (Kd) stood at 0.7 nM.

Consider B2, for which the Kd was 0.09 nM.

With B3, the equilibrium dissociation constant (Kd) came to 1 nM.

As for B4, the binding result is reported as “no binding”.

With B5, the binding result was “no binding”.

With B6, the Kd stood at 1 nM.

Regarding B7, the Kd amounted to 0.7 nM.

The next test has as its target T1, full-length recombinant tau (0N4R). Description: direct binding ELISA, antibody titrated on rTau383, OD-450 nm.
As to B8, the binding result was “no binding (tested: log -8.2 M (about 6e-9 M))”.

For the next test, the target named is full-length recombinant tau (0N4R) (UniProt P10636 1-383). The test is described as above.
B9: the EC50 (read off the curve) (as a rule, the midpoint of the concentration-response curve) was ~0.07 nM.

Another test deals with T4, eTau4. Nature of the test: direct binding ELISA, antibody titrated on eTau4, OD-450 nm.
For B9, the half-maximal effective concentration (EC50 (read off the curve)) is ~0.1 nM.

Take B8: the concentration giving a half-maximal response (EC50 (read off the curve)) is ~0.03 nM.

The record behind these values is patent US20160347804A1 (IPIERIAN, published 2016).
